Measurements published in patent US20230192881A1 (EDESA BIOTECH RESEARCH, published 2023).
Where “and” joins values, the source holds several entries; their conditions need not be identical. Identical values can stand only once.

Columns and labels:
mouse TLR4 [1] = molecular target: T1, mouse TLR4 (mouse, UniProt Q9QUK6 26-629, limits assumed); test: cell-based or functional assay
T1 sequence (looked up): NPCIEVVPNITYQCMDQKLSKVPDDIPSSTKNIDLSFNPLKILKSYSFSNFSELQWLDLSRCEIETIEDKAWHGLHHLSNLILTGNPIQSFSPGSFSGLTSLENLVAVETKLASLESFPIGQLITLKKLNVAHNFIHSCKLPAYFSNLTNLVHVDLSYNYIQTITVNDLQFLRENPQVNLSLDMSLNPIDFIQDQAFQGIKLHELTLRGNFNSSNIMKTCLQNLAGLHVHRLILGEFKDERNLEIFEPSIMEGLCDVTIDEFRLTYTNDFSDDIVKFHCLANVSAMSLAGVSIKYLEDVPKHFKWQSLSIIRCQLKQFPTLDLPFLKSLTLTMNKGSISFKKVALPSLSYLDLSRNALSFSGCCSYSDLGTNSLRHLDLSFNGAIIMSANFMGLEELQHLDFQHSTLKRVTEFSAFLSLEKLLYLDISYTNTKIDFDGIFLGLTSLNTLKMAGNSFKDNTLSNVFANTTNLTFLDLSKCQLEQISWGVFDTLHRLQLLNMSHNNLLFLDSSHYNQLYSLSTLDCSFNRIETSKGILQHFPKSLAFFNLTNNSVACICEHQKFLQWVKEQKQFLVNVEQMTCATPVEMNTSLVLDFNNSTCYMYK

mouse FcRn = molecular target: T2, mouse FcRn (mouse, UniProt Q61559 22-297; P01887 21-119, limits assumed); test: method not stated
T2 construct: also called mFcRn
T2 sequence (looked up) 1: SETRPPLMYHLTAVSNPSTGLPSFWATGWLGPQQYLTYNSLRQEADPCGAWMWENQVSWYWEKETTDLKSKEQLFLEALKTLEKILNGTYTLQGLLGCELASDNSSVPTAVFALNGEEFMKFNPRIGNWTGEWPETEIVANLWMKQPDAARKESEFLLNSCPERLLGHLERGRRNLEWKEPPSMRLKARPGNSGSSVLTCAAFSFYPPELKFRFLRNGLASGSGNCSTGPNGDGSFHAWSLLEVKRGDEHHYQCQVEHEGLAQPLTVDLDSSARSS
T2 sequence (looked up) 2: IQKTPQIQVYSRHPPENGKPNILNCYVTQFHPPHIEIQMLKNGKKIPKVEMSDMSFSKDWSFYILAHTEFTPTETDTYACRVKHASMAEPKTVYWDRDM

mouse FcγRIII = molecular target: T3, mouse FcγRIII (mouse, UniProt P08508 31-215, limits assumed); test: method not stated
T3 construct: also called mFcγRIII
T3 sequence (looked up): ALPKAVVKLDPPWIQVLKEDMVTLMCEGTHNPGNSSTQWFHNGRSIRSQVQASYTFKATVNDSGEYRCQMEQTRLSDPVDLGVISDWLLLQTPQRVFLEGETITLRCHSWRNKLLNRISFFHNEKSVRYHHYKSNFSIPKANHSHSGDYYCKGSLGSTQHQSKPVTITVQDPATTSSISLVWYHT

mouse FcγRIV = molecular target: T4, mouse FcγRIV (mouse, UniProt A0A0B4J1G0 21-203); test: method not stated
T4 construct: also called mFcγRIV
T4 sequence: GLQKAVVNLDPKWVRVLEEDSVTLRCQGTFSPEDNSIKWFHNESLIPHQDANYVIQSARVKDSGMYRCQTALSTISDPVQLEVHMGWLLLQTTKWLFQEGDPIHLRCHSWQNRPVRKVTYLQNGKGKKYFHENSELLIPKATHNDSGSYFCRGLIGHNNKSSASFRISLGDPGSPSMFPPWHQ

mouse FcγRI = molecular target: T5, mouse FcγRI (mouse, UniProt P26151 25-297, limits assumed); test: method not stated
T5 construct: also called mFcγRI; mouse FcyRI
T5 sequence (looked up): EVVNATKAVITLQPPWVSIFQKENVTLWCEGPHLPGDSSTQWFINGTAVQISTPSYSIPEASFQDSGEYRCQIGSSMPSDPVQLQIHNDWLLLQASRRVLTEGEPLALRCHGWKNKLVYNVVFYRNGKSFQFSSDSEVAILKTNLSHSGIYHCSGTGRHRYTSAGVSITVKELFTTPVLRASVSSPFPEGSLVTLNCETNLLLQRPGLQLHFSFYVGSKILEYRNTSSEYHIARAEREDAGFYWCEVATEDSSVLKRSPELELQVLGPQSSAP

mouse FcγRII = molecular target: T6, mouse FcγRII (mouse, UniProt P08101 30-210, limits assumed); test: method not stated
T6 construct: also called mFcγRII; mouse FcyRII
T6 sequence (looked up): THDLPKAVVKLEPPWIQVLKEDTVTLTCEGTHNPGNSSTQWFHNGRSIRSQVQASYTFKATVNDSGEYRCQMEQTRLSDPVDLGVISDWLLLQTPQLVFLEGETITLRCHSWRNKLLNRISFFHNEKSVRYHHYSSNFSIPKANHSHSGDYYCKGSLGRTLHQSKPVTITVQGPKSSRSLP

mouse TLR4 [2] = molecular target: T1, mouse TLR4; test: method not stated, average Kd
human TLR4 [3] = molecular target: T7, human TLR4 (human, UniProt O00206 24-839); test: KinExA
T7 construct: also called hTLR4; Toll-like Receptor 4

human FcγRIIa 131R [4] = molecular target: T8, human FcγRIIa 131R (human, UniProt P12318 36-218, limits assumed); test: surface plasmon resonance (refers to Table 9)
T8 sequence (looked up): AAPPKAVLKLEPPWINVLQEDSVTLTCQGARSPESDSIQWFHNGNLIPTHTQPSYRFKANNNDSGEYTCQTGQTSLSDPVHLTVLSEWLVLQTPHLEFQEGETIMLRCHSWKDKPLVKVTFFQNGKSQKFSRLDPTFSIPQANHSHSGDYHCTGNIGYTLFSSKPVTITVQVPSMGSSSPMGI

human TLR4 [5] = molecular target: T7, human TLR4; test: cell-based or functional assay
human FcγRIIa 131H = molecular target: T9, human FcγRIIa 131H (human, UniProt P12318 36-218, limits assumed); test: surface plasmon resonance
T9 sequence (looked up): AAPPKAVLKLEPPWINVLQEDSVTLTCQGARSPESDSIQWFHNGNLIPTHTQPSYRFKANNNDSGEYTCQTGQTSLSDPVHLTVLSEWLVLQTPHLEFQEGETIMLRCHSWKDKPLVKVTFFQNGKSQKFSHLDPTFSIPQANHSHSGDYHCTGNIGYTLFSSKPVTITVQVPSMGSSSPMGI

human FcγRI = molecular target: T10, human FcγRI (human, UniProt P12314 16-288, limits assumed); test: surface plasmon resonance
T10 construct: also called CD64; FcyRI

human FcγRIIa 131R [6] = molecular target: T8, human FcγRIIa 131R; test: surface plasmon resonance
human FcγRIIb = molecular target: T11, human FcγRIIb (human, UniProt P31994 43-217, limits assumed); test: surface plasmon resonance
T11 construct: also called CD32b
T11 sequence (looked up): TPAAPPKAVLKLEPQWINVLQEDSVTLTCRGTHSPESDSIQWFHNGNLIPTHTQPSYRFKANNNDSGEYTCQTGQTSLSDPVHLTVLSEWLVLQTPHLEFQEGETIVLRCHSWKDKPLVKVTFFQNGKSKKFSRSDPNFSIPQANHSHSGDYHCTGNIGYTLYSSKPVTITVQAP

human TLR4 [7] = molecular target: T7, human TLR4; test: KinExA combined with ELISA, average Kd
human TLR4 [8] = molecular target: T7, human TLR4; test: cell-based or functional assay; remark: listed apart in the source

T7 sequence (O00206 24-839 limits assumed): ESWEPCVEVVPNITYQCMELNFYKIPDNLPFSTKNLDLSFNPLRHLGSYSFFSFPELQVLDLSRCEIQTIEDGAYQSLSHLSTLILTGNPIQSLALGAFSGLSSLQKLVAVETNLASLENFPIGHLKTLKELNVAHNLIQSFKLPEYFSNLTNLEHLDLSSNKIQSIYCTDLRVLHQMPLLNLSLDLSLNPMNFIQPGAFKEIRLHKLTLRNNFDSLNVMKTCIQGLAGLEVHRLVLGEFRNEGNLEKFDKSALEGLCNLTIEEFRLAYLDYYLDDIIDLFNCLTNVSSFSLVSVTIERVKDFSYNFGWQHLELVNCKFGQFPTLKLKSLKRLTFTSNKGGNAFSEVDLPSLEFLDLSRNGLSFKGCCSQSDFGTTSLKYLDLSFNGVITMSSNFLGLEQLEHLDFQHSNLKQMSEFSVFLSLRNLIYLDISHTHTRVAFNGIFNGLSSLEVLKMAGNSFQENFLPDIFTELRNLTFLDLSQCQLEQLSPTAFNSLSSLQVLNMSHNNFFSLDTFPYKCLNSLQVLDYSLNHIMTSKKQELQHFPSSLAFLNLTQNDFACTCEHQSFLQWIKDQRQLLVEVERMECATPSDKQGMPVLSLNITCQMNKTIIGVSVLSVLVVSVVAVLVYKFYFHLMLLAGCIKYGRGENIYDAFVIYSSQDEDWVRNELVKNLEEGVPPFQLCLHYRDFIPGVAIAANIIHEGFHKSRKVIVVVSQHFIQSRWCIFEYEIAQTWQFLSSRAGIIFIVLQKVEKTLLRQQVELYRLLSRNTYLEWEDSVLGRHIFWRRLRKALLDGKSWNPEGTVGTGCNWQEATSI
T10 sequence (P12314 16-288 limits assumed): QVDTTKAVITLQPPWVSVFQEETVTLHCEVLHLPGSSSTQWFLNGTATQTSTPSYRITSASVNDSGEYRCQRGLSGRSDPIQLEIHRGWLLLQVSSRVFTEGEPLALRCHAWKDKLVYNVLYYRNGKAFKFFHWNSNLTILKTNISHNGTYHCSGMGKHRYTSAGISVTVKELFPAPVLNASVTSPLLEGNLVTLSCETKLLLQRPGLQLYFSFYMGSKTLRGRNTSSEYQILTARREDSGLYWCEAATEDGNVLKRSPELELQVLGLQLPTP

B1: 5E3 (antibody, mouse IgG2a, kappa)
heavy: QIQLVQSGPELKKPGESVKISCKASGYTFTDYVMYWVKQAPGKGLKWMGWINTNTGKPTYADDFKGRFVFSLEASASTANLQISNLKNEDTATYFCTRGNYPGLRVMDAWGQGASVTVSSAKTTAPSVYPLAPVCGDTTGSSVTLGCLVKGYFPEPVTLTWNSGSLSSGVHTFPAVLQSDLYTLSSSVTVTSSTWPSQSITCNVAHPASSTKVDKKIEPRGPTIKPCPPCKCPAPNLLGGPSVFIFPPKIKDVLMISLSPIVTCVVVDVSEDDPDVQISWFVNNVEVHTAQTQTHREDYNSTLRVVSALPIQHQDWMSGKEFKCKVNNKDLPAPIERTISKPKGSVRAPQVYVLPPPEEEMTKKQVTLTCMVTDFMPEDIYVEWTNNGKTELNYKNTEPVLDSDGSYFMYSKLRVEKKNWVERNSYSCSVVHEGLHNHHTTKSFSRTPGK
light: DIQMTQSPSSMSVSLGDTVTITCRASQDVGIYVNWFQQKPGKSPRRLIFRATNLADGVPSRFSGSRSGSDYSLTISSLGSEDVAGYHCLQYDEYPLTFGSGTKLEIKRADAAPTVSIFPPSSEQLTSGGASVVCFLNNFYPKDINVKWKIDGSERQNGVLNSWTDQDSKDSTYSMSSTLTLTKDEYERHNSYTCEATHKTSTSPIVKSFNRNEC
notes: Chimeric anti-mouse TLR4 mAb: rat variable regions grafted onto a mouse IgG2a kappa Fc
Mouse TLR4 [1]
  IC50, Blockade of LPS induced TLR4 signalling, mouse whole blood: 1.16 nM and 173 ng/mL
Mouse FcRn
  Kd: 2.93 nM
Mouse FcγRIII
  Kd: 505 nM
Mouse FcγRIV
  Kd: 113 nM
Mouse FcγRI
  Kd: 50.8 nM
Mouse FcγRII
  Kd: 3260 nM
Mouse TLR4 [2]
  Kd: 0.027 nM

B2: Hu 15C1 (antibody, V domains shown)
VH: QVQLQESGPGLVKPSDTLSLTCAVSGYSITGGYSWHWIRQPPGKGLEWMGYIHYSGYTDFNPSLKTRITISRDTSKNQFSLKLSSVTAVDTAVYYCARKDPSDAFPYWGQGTLVTVSS
VL: EIVLTQSPDFQSVTPKEKVTITCRASQSISDHLHWYQQKPDQSPKLLIKYASHAISGVPSRFSGSGSGTDFTLTINSLEAEDAATYYCQQGHSFPLTFGGGTKVEIK
notes: the rest is a non-mutated human IgG1 Fc
Human TLR4 [3]
  Kd: 0.139 nM

B3: NI-0101 (antibody, human IgG1, kappa)
heavy: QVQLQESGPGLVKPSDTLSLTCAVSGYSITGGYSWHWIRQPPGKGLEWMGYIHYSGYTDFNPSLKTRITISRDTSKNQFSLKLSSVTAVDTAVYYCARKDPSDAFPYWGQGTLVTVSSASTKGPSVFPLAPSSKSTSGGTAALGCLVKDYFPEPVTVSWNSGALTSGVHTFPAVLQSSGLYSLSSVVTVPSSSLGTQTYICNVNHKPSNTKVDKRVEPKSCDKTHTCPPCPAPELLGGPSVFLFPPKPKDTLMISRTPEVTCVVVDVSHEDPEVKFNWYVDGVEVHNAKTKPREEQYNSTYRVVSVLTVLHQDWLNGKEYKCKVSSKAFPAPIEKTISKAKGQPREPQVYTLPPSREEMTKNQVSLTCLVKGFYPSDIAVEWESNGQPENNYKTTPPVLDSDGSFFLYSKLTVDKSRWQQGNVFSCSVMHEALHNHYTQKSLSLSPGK
light: EIVLTQSPDFQSVTPKEKVTITCRASQSISDHLHWYQQKPDQSPKLLIKYASHAISGVPSRFSGSGSGTDFTLTINSLEAEDAATYYCQQGHSFPLTFGGGTKVEIKRTVAAPSVFIFPPSDEQLKSGTASVVCLLNNFYPREAKVQWKVDNALQSGNSQESVTEQDSKDSTYSLSSTLTLSKADYEKHKVYACEVTHQGLSSPVTKSFNRGEC
Human FcγRIIa 131R [4]
  fold higher affinity than to the 131H variant: 2 fold
Human TLR4 [5]
  IC50, Blockade of LPS induced TLR4 signalling, human whole blood (FcγRIIaHH): 2.19 nM and 324 ng/mL
Human FcγRIIa 131H
  Kd: 311 nM
Human FcγRI
  Kd: 47.3 nM
Human FcγRIIa 131R [6]
  Kd: 151 nM
Human FcγRIIb
  Kd: 870 nM
Human TLR4 [7]
  Kd: 0.139 nM
Human TLR4 [8]
  IC50, LPS mediated cytokine production in human primary macrophages: 0.0104 nM
  IC50, LPS-induced IL-6 release in THP1 cells (FcγRIIa 131HH): 0.0027 nM
  IC50, LPS-induced IL-6 release in U937 cells (FcγRIIa 131RR): 0.002 nM
  IC50, LPS-induced IL-6 release in human whole blood, FcγRIIa 131HH donors: 2.19 nM
  IC50, LPS-induced IL-6 release in human whole blood, FcγRIIa 131RH donors: 0.223 nM
  IC50, LPS-induced IL-6 release in human whole blood, FcγRIIa 131RR donors: 0.128 nM
  IC50, Tenascin-C mediated cytokine production in human primary macrophages: 0.022 nM
  IC50, nickel mediated cytokine production in human primary macrophages: 0.015 nM
